Experimental data taken from publication doi:10.1101/2022.01.06.475303 (bioRxiv, 2022).

Target: SARS-CoV-2 receptor binding domain (RBD), Wuhan-1 (SARS-CoV-2 Wuhan-Hu-1, UniProt P0DTC2)
Assay: SPR

B1: eCC12.1.7 IgG (antibody, V domains shown)
VH: EVQLVESGGGLIQPGGSLRLSCAASGLTVSSNYMTWVRQAPGKGLEWVSVIYAGGSTFYADSVKGRFTISRDNSKNTLYLQMNSLRAEDTAVYYCARDLDVYGVDVWGQGTTVTVSS
VL: DIQLTQSPSFLSASVGDRVTITCRASQGISRYLAWYQQKPGKAPKLLIYAASTLQYGVPSRFSGSGSGTEFTLTISSLQPEDFATYYCQQLNSYPPKYTFGPGTKVEIK
  binding result: binds
